# Measurements taken from the nanobody polyreactivity screen of Harvey et al. (2022).
# Test: yeast display, Sf9 membrane polyspecificity reagent, FACS + sequencing; frameworks hold sequencing errors
# How it was run: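 Sorting gates, low and high (top ~1%), were placed on anti-HA fluorescence to track expression and on streptavidin fluorescence to track reagent binding. A clone's polyreactivity label is taken from the gate it came out of. The reagent was 10% biotinylated, detergent-solubilized Sf9 membrane, applied for 1 hour at 4 °C to galactose-induced yeast display cells.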
row,Sequence,polyreactivity (PSR sort gate)
1,QEQLVESGGGLVQAGGSLRISCAASGFIFGFYAMGWYRQAPGKERELVAAISWSAGSTYFADSVMGRFTISRDNAKNTVYLQMYSLKPEDTAVYYCAAYFDFRDDAVTYDYWGQGTQVTVSS,low polyreactivity
2,QEQLVESGGGLVQAGGSLRLSCAASGRIFPYYAMGWYRPAPGKERELVASITARGGSTYYADSVKGRFTISRDNAKNTVYLQMNSLKPEDTAVYYCATRGYAWSSDKFGYWGQGTQVTVSS,high polyreactivity
3,QEQLVESGGGLVQAGGSLRLSCAASGSIFATYAMGWNRQAPVKERELVAAITSSDGSTNYADSVKGRFTISRDNAKNTVYLLMNSLKPEDTAVYYCAADGTVRSLGRYYHWGQGTQVTVSS,low polyreactivity
4,QEQLVESGGGLVQAGGSLRLSCAAYGSTYNSYVMGWNRQAPVKERELVAAISTSGGRTYYADSVKGRFTISRDNAKNTVYLKMISLKPEDTAVYYCNRVFLKYYESTHWRDYWGQGTKVTVSS,high polyreactivity
5,QEQLVESGGGLVQAGGSLRLSGAASGGIFGRYAMGGYRQAPGKEMELVAAISKRGGSTYYADSVKGRFTISRDNAKNTVYLQMNSLKPEETAFYYCNAAQSVELGYDYWGQGTQVTVSS,high polyreactivity
6,QEQMQEGGGGLVQAGGSLRLICASSGYNFNGDWMGWNRQAPGKERELVATINYGATTNYADSVKGRFTISRDNAKNTVYLQMNSLKPEDTAVYYCAVGGHGAQLYVYWGQGTQVTVSN,high polyreactivity
7,QFHLVESGGGLVQAGGSLRLSCAAAGYTYGYYTMGWYRQAPGKERELVAAIDSGGRTNYADSVKGRFTISRDNAKNTVYLQMNSRKPEDTAVYYCAAESPLYWVDDFESGWRYYYWGQGTQVTVSS,low polyreactivity
8,QFHLVETGGGLVQAGGSLRLSCAASGSTFSDYAMGSYRQAPGKERELVAGITETGTTTYYADSVNGRFTISRDNAKNTDYLQINSLKPEDTAVYYCAAFLVTYYYGTGYYSYDYWGQGTQVTVSS,low polyreactivity
9,QFKLVESGGGLVQAGGSLRLSCAASGFTFRLVKAMRWYRQAPGKERELVAGINSGDITYYADSVKGRFTISRDNAKNTVYLQMNSLKPEDTAVYYCAARVVYGYGHYDYWGQGTQVTVSS,low polyreactivity
10,QFQIEESGGGLVQAGGSLRLSCAASGNTFYWNAMGWYRQAPGKDRELVAAISTTGVSTYYADSVKGRFTISRDNAKITVYLQMNSLKPEDTAVYYCAAEIIGYHTIYDYWGQGTQVTVSS,low polyreactivity
11,QFQLGESGGGLVQAGGSLRLSCAASGSTFSGYTKGWYRQARGKEREFVAAISSRGGSTYYADSVKGRFTISRDNAKNTVYLQMYRLNPEDTAVYYCAAKVCARVDGRQFRMEYWGQGTQVTVSS,high polyreactivity
12,QFQLVDSVGGLDQAGGSLRLSSDASGLTLIGNAMGWYRQAPVKERELVASITIGGTTYADSVKGRFTISRDNAKNTVYLQMNSLKPEDTEVYYCAADFSSFSIDTGYDYWGQGTQVTVSS,low polyreactivity
13,QFQLVESAGGLFQAVGSHRLSCAASGRTFTQYAMGWYRQAPGKERELVAAISWRGGSTYYADSVKGRFTISRDNAKNTVYLQMNSLKPEDTAVYYCAKRYFRGYPLYDYWGQGTQVTVSS,high polyreactivity
14,QFQLVESCGGLVQAGGTLRLSCAASGFIFDIYERGWYRQAPGKERELVAAITWNSGSTHYADSVKGRFTISRDNAKKTVYLQMNSLNPDDTAVYYCAAVEVTYAYYPYDYCGQGTQVTVSS,low polyreactivity
15,QFQLVESGGCLVQAGGSLRLSCAASGFIFLQYAMGWYRQAPGKETELGAAITSGGGTNYEDSVKGRFTISRDNAKNTVYLPMNSLKPEDTAGYNCAARTWPWVLGATQDDYWGQGTQVTVSS,low polyreactivity
16,QFQLVESGGCLVQAGGSLRLSCAASGRTFGWYAMGWYRQAPGKERELVAAISTRGTRTYYADSVKGRFTISRDNAKITDYLQMYSLKPEDTAVYYCNAKRRAVTTAHGIPEEDYWGQGTKVTVSS,high polyreactivity
17,QFQLVESGGGFVQAGGSLRLSCAASGSIFLYNDMGWYRQAPGKDRELLPAITSDGSTNYADSVKGRFTISRDNAKNTVYLQMNSLKPEDTAVYYCAADALWFYLNWYYGGTAYGYWGQGTQVTVSS,low polyreactivity
18,QFQLVESGGGLDQAGGSLRISCAASGSTFSYNAIGWYRQAPGKERELVAAITSRGGSTRYADSVKGRFTISRDNAKNTVYLQMNSLNPEDTAVYYCARPYSYYPYSTVNYWGQGTQVTVSS,high polyreactivity
19,QFQLVESGGGLLQAGGSLRLSCAASGFTFSYNAKGWYRKAPGKERELVAAISSSGGSTYYADSVKGRFTISRDNAKNTVYLQMNILKPEDPSVYYCAVPYLTLYGRSYDYWGQGTQVTVSS,high polyreactivity
20,QFQLVESGGGLLQAGGSLRLSCAASGLTFNQKAMGWYTQAPGKDRELVAAISRRGGSTYYADSVKGRFTFSRENAKNTVYLQLNSLKPEDTAVYYCNTRGKSGLWWYYYWGQGTQVTVSS,high polyreactivity
21,QFQLVESGGGLVHAGGSLRLSCAATGSTLPGYAMGWYRQAPGKERELVAAITSRGGTTYYADSVKGRFTISCDNAKKTVYLQMNSLKPEDTAVYYCAAYTSYASDYWGQGTQVTVSS,high polyreactivity
22,QFQLVESGGGLVKAGGSLRLSSAASGGTFGYYTMGWYRQAPGKERELVAAISSGGGTDYADSVKGRFTISRDNAKNTVYFQMTSLKPEDTALYYCATVSDYPWRYDYWVQGTQVTVSS,low polyreactivity
23,QFQLVESGGGLVQAGASLRLSCAASGSIFDLNALGWYRQAPGKDRELVAAITRDSGITYYADSVKGRFKISRDNAKNTVYLQMNSLKPEDTAVYYCAADADSSSGDSWGQGTQVTVSS,low polyreactivity
24,QFQLVESGGGLVQAGGILRLSCADSGSTFRWYAMGWYRKAPGKERELVASITYSGASTYYADSVKGRFTISRDNAKNTVYLQMISLKPEDTAVYYCNAVFWFSYVSEYDYWGQGTQVTVSS,high polyreactivity
25,QFQLVESGGGLVQAGGRLRLSCAASGSIFYRNAMGWYRQAPGKERELVAAISASGGSTYYADSVKGRFTISRDNEKNTVYLQMIILKPEDTAVYYCDVEYRKSRSYAPMGYWGQGTQVTVSS,high polyreactivity
26,QFQLVESGGGLVQAGGSLRISCAASGSTFVLNAMGWYRQAPGKDREWVAAISQSDYSTYYSDSVKGRFTISRDNAKNTVYLQMNSLKPEDTAVYYSAREYAHLSFLSTSSDYWGQGTQVTVSS,low polyreactivity
27,QFQLVESGGGLVQAGGSLRLRCAATGSNFYVYALGWYRQAPGKETELVAAIRRTGSSTYYADSVKGRFTMSRDNAKNTDYLQMNSLKPEDTAVYYCAARYWRARAGSYDYWGQGTQVTVSS,high polyreactivity
28,QFQLVESGGGLVQAGGSLRLSCAASGFIFGGNVMGWYRQAPGKERELVAAITSSATTYYADSVKGRFTISRDNAKNTVYLQMNSLKREDTAVYYCAADTWTIVDYGYWGQGTQVTVSS,low polyreactivity
29,QFQLVESGGGLVQAGGSLRLSCAASGFIFGYNAMGWYRQAPGKERELVAPITYNGASTNYADSVKGRFTISRDNAKNTVYLQMNSLKPEDTAVYYCAADYGPYDPEDDWGQGTQVTVSS,low polyreactivity
30,QFQLVESGGGLVQAGGSLRLSCAASGFIFKPYTMGWYRQAPGKERELVATITFSGGSTYYADSVKGRFTISLDNAQNTVYLQMNSLNPEDTAVYYCADPRYYRGYSIFDYLGQGTQVTVSS,low polyreactivity
